Results as given in patent publication US20200102389A1 (Hoffmann-La Roche, published 2020).

B1: HLA-G-0033 (antibody, V domains shown)
VH: EVQLVETGGGLVQSGRSLKLSCVASGFTFNDYWMTWTRQAPGKGLEWVASITNSGGRTYYLDSVRGRFTISRDDAQNTLYLQMNSLRSEDTATYYCTKERIYLTAYWFFDFWGPGTMVTVSS
VL: DTILTQSPALAVSPGERVTISCRASESVSTLIHWYQQKPGQRPKLLIYLASHLESGVPARFSGSGSGTDFTLTIDPVEADDTATYYCQQSWNEPRTFGGGTKLELK
B2: HLA-G-0037 (antibody, V domains shown)
VH: QVQLKESGPGLVQPSQTLSLTCSVSGFSLTTYSVSWVRQPPGKGLEWIGAIWSGGSTDYNSALKSRLRISRDTSKSQVLLKMNSLQTEDRAMYFCVRMNNKFGYWYFDLWGPGTMVTVSS
VL: DTVLTQSPTLAVSPGEKITISCRASETVSTMLHWYQQKPGQQPKLLISLASHLESGVPARFTGSGSGTDFTLTIDPVEADDTATYYCQQTWNDPLTFGSGTKLEIK
B3: HLA-G-0032 (antibody, V domains shown)
VH: QVQLQQSGAELVKPGSSVKISCKASGYSFPSYDMHWIKQQPGNGLEWIGWIYPGNGNTKYNQKFNGKASLTADKSSSTAYMQLSSLTSEDSAVYFCAKPTVATRYNWFAYWGQGTLVTVSS
VL: QIVLTQSPALMSASPGEKVTMTCSASSSVNYMHWYQQKPRSSPKPWIYLTSNLASGVPARFSGSGSGTSYSLTISTMEAEDAATYYCQQWSSNLPITFGSGTKLEIK

target: T1, recombinant soluble human HLA-G β2M MHC class I complex, trimer (human); assay: ELISA, HLA-G trimer coated on plate
T1 construct: also called HLA-G Trimer; fraction A8
Experimental: (§1) The above table summarizes the binding of different rat anti-human HLA-G monoclonal antibodies, derived from wt protein IMS. Shown are the relative EC50 values [ng/ml] of the respective binding to rec. wt monomeric, dimeric and trimeric HLA-G proteins as assessed by ELISA. The ELISA was set up by coating the biotinylated wt HLA-G antigen to strepdavidin plates. After incubation and washing steps, the respective antibodies were bound in a concentration range from 10-0 μg in 1:2 dilution steps. Detection of bound antibodies was carried out by anti-Fc-antibody-POD conjugates. EC50 values were determined from the resulting binding curves at the antibody concentrations generating the half-maximal signal. In case of the non-biotinylated HLA-G dimer and trimer antigens, immobilization was carried out by random coating on assay plates.

Row | EC50 [nM] | Binder
1 | 1.54 | B1
2 | 2.5 | B2
3 | 1.76 | B3

target: T2, recombinant soluble human HLA-G β2M MHC class I complex, monomer (human); assay: ELISA, biotinylated wt HLA-G monomer on streptavidin plate
T2 construct: His tagged; also called HLA-G-0003
Experimental: Streptavidin coated plates (Nunc, MicroCoat #11974998001) were coated with 25 μl/well biotinylated human wt HLA-G at a concentration of 250 ng/ml and incubated at 4° C. overnight. After washing (3×90 μl/well with PBST-buffer) 25 μl anti-HLA-G samples (1:3 dilution in OSEP buffer) or reference antibody (G233, Thermo/Pierce #MA1-19449, 500 ng/ml) were added and incubated 1 h at RT. After washing (3×90 μl/well with PBST-buffer) 25 μl/well goat-anti-mouse H+L-POD (Biorad #170-6561, 1:2000 in OSEP) or donkey-anti-rabbit IgG POD (GE #NA9340V, 1:5000 in OSE) was added and incubated at RT for 1 h on shaker. For detection of rat IgGs a mixture of goat-anti-rat IgG1-POD (Bethyl #A110-106P), goat-anti-rat IgG2a-POD (Bethyl #A110-109P) and goat-anti-rat IgG2b-POD (Bethyl #A110-111P) 1:10000 in OSEP was added and incubated at RT for 1 h on shaker. After washing (6×90 μl/well with PBST-buffer) 25 μl/well TMB substrate (Roche, 11835033001) was added and incubated until OD 2-3. Measurement took place on a Tecan Safire 2 instrument at 370/492 nm.
as §1

Row | EC50 [nM] | Binder
4 | 4.94 | B1
5 | 4.95 | B2
6 | 3.59 | B3

target: T3, recombinant soluble human HLA-G β2M MHC class I complex, dimer (human); assay: blocking ELISA, Fc tagged ILT2 coated, 100 nM antibody, soluble HLA-G dimer
T3 construct: also called HLA-G Dimer; fraction A9
Experimental: (§2) The ELISA was set up by coating the Fc tagged ILT2 and ILT4 respectively to Maxisorp microtiter plates. After incubation and washing steps, the respective antibodies were added at a concentration of 100nM. Soluble His tagged monomeric, dimeric or trimeric HLA-G was added to the wells. After incubation and washing steps, detection of bound receptor was carried out by anti-His-antibody-POD conjugates.

Row | % inh. ILT2 [%] | Binder
7 | 95 | B1
8 | 96 | B2
9 | 95 | B3

target: T3, recombinant soluble human HLA-G β2M MHC …; assay: blocking ELISA, Fc tagged ILT4 coated, 100 nM antibody, soluble HLA-G dimer
Experimental: as §2

Row | % inh. ILT4 [%] | Binder
10 | 70 | B1
11 | 61 | B2
12 | 62 | B3

target: T1, recombinant soluble human HLA-G β2M MHC …; assay: blocking ELISA, Fc tagged ILT4 coated, 100 nM antibody, soluble HLA-G trimer
Experimental: as §2

Row | % inh. ILT4 [%] | Binder
13 | 71 | B1
14 | 67 | B2
15 | 68 | B3

target: T2, recombinant soluble human HLA-G β2M MHC …; assay: blocking ELISA, Fc tagged ILT4 coated, 100 nM antibody, soluble HLA-G monomer
Experimental: as §2

Row | % inh. ILT4 [%] | Binder
16 | 14 | B1
17 | 1 | B2
18 | 12 | B3

target: T4, human HLA-G expressed on cells (JEG3 naturally; SKOV3 HLA-G+ and PA-TU-8902 HLA-G+ transfectants) (human, UniProt P17693 25-338); assay: flow cytometry, JEG3 cells pre-incubated with antibody, competitor ILT2-Fc chimera
T4 construct: whole, on cells; also called cell surface HLA-G; HLA-G on JEG3 cells
Experimental: For analysis, JEG3 cells (ATCC HTB36) were stained with ILT2-Fc fusion proteins (control=no inhibition) with or without pre-incubation with different anti-HLA-G antibodies. For the pre-incubation with anti-HLA-G antibodies 25 μl/well of the cell suspension was transferred into a polypropylene 96-Well V-bottom plate and prechilled in the at 4° C. for 10 min. Anti HLA-G antibodies or reference antibodies (G233, MEM-G/9 or 87G) were diluted in staining buffer to a 2-fold concentration of 20 μg/ml and 25 μl/well of the antibody solution was added to the prepared cells and incubated for 1 h at 5° C. Cells were washed twice with 200 μl/well staining buffer with centrifugation at 300 g for 3 min and finally resuspended in 25 μl/well staining buffer.
The detection of human ILT2-Fc Chimera protein (RD #2017-T2-050) to a) JEG3 cells pre-incubated anti HLA-G mAb or b) untreated JEG3 cells as reference was determined as follows: Briefly, the ILT2-Fc or control human IgG (Jackson-Immuno-Research #009-000-003) were diluted in staining buffer to a 2-fold concentration of 20 μg/ml (ILT2) and 25 μl/well of the ILT2-Fc protein solution was added to the prepared cells and incubated for 2 h at 5° C. Cells were again washed twice with 200 μl/well staining buffer the human ILT2-Fcprotein was detected with fluorescent labeled anti human IgG Fc-gamma specific antibody (F(ab′)₂ Fragment Goat Anti-Human IgG, Fcy fragment specific-FITC, Jackson-Immuno-Research #109-096-008) at a dilution of 10 μg/ml in staining buffer. Cell pellets were resuspended in 50 μl/well detection antibody. After a 1-hour incubation at 5° C. cells were washed twice with staining buffer, resuspended in 70 μl and measured at a FACS Canto II to determine ILT2 binding to JEG 3 cells.

Row | Inhibition of ILT2 binding to Jeg3 cells [%] | Binder
19 | -9.3 | B1
20 | 96.5 | B2
21 | 98.1 | B3

target: T3, recombinant soluble human HLA-G β2M MHC …; assay: competition ELISA, immobilised HLA-G dimer, antibody titrated, competitor c-myc ILT2
Experimental: (§3) The ELISA was set up by coating the biotinylated antigen wt HLA-G to strepdavidin plates. After incubation and washing steps, the respective antibodies were bound in a concentration range from 8-0 μg in 1:3 dilution steps. C-myc tagged ILT-2 or -4 receptor was added to the HLA-G-antibody complexes. After incubation and washing steps, detection of bound receptor was carried out by anti-cmyc-antibody-POD conjugates. IC50 values were determined from the resulting inhibition curves at the antibody concentrations generating the half-maximal inhibition. In case of the non-biotinylated HLA-G dimer and trimer antigens, immobilization was carried out by random coating on assay plates.

Row | IC50 [nM] | Binder
22 | 1.2 | B1
23 | 0.8 | B2
24 | 1.3 | B3

target: T1, recombinant soluble human HLA-G β2M MHC …; assay: competition ELISA, immobilised HLA-G trimer, antibody titrated, competitor c-myc ILT2
Experimental: as §3

Row | IC50 [nM] | Binder
25 | 0.5 | B1
26 | 0.1 | B2
27 | 0.4 | B3
